Series [1] in a line: Mean particle size and zeta potential by Zetasizer Nano ZS. It is filed as physicochemical. To be noted: for physicochemical properties (particle size and zeta potential) of the labeled compound versus the unlabeled compound: stated in words. The text has this:
1.1 equivalents of Boc-Ser(t-Bu)-OH (manufactured by Watanabe Chemical Industries, Ltd.), 1.1 equivalents of 1-[bis(dimethylamino)methylene]-1H-benzotriazolium 3-oxide hexafluorophosphate (HBTU) (manufactured by Merck Millipore), 1.1 equivalents of anhydrous 1-hydroxy-1H-benzotriazole (HOBt) (manufactured by Watanabe Chemical Industries, Ltd.) and 2.2 equivalents of N,N-diisopropyl ethylamine (DIPEA), each to the total number of amino groups of poly-L-lysine hydrobromide (manufactured by Sigma-Aldrich Co. LLC., P6516-100M, number average molecular weight: 4000-15000) were mixed in DMF/DMSO (1:1). Then, the reaction mixture was reacted by stirring at room temperature until the ninhydrin test yielded negative results on TLC analysis. After completion of coupling, this solution was purified by precipitation with diethylether three times. The precipitates thereof were dissolved in a trifluoroacetic acid (TFA) cocktail (95% TFA, 2.5% […] (TIS) and 2.5% purified water) to deprotect the Boc group and t-Bu group (protecting group of oxygen atom of serine). Then, the reaction mixture was incubated at room temperature for 90 min. After completion of deprotection, the reaction mixture was purified by precipitation with diethylether three times.

A short description of series [2]: Releasability of serine and biodegradability: PD-10 fractionation of kidney homogenate radioactivity. To be noted: 3 hr after intravenous administration. Here is the method: The kidney after blood removal was immediately ice-cooled, purified water (4 mL) was added and homogenized. A saturated potassium chloride solution (1 mL) was added to the prepared kidney homogenate, and the mixture was allowed to stand at 4° C. overnight and then centrifuged. The centrifuged supernatant (1 mL) was developed on a PD-10 column with 0.1 M acetate buffer (pH 6.0), and the radioactivity of the fraction was measured.

The test system of series [3] is B16-BL6/Luc cells. Description: Renal cell carcinoma proliferation suppressive activity in renal cell carcinoma model mouse. It is filed as in vivo, C57BL/6J mouse. Here is the method: The renal cell carcinoma model was produced by injecting firefly luciferase gene-labeled B16-BL6 cells (B16-BL6/Luc cells, 2.5×10^5 cells) together with Matigel (registered trade mark) Matrix in the renal cortex of the right kidney of C57BL/6J mouse. […] 14 days after tumor inoculation, 2.5 mg of D-Luciferin was intraperitoneally injected into the mouse under anesthesia by intraperitoneal injection of triple anesthesia (medetomidine (0.3 mg/kg), midazolam (2 mg/kg), butorphanol (2.5 mg/kg)), and imaged using LAS-4000 IVIS Imaging System (FUJIFILM, Japan). Then, the mouse was euthanized, the kidneys were isolated, and the luciferase activity in the tissue was measured with a luminometer (Lumat LB9507, EG&G Berthold, Bad Wild-bad, Germany). From the obtained luciferase activity, the number of cancer cells in the kidney was calculated using a regression line. In addition, the body weight of the mouse was measured immediately after the tumor inoculation administration and 14 days after the tumor inoculation.

Series [4] is described as follows: Acute kidney toxicity after administration. The class given is in vivo, ddY mouse. To be noted: positive control, 8 mg/kg s.c., bred for 2 days. Here is the method: The severity of renal damage was evaluated from the plasma creatinine level and plasma urea nitrogen concentration 6 days after the start of administration. The plasma creatinine concentration was measured using a commercially available measurement kit (LabAssay, manufactured by Wako Pure Chemical Industries, Ltd.). Plasma urea nitrogen concentration was measured using a commercially available measurement kit (DIUR-100, manufactured by BioAssySystem). Mercury chloride was subcutaneously injected at 8 mg/kg, the group bred for 2 days was used as a positive control, and the results were compared.

For “FITC-labeled serine-modified poly-L-lysine [FITC-labeled compound (Ia)]”, the “physicochemical properties (particle size and zeta potential) of the labeled compound versus the unlabeled compound” value in series [1] is given as “the same as those of compound (Ia)”.

Take ^111In-labeled poly-L-lysine: the “physicochemical properties (particle size and zeta potential) of the labeled compound versus the unlabeled compound” value in series [1] is listed as “the same as those of poly-L-lysine”. For the same compound, in series [2], the “decomposition in the kidney” value is listed as “easily decomposed in the kidney”. Further, in series [2] (PD-10 column), the “radioactivity in high / low molecular weight fraction, kidney homogenate” value is reported as “mainly on the low molecular weight fraction side”.

With “^111In-labeled serine-modified PAMAM(G3)”, in series [1], the “physicochemical properties (particle size and zeta potential) of the labeled compound versus the unlabeled compound” value was “also the same”.

For the compound “^90Y-labeled serine-modified poly-L-lysine [^90Y-labeled compound (Ia)]”, in series [3] (14 days after tumor inoculation, vs PBS, FIG. 9(B)), the “luciferase luminescence derived from cancer cells” value is on record as “remarkably suppressed as compared with that of mouse administered with PBS”. The “growth of the number of cancer cells in the kidney” value in series [3] (i.v. immediately after tumor inoculation, 14 days after inoculation, vs PBS, FIG. 9(A)) is listed as “remarkably suppressed”. Also, the “body weight of mouse” value in series [3] (immediately after and 14 days after tumor inoculation, FIG. 9(C)) was “did not affect”.

For the compound ^111In-labeled PAMAM(G3), in series [1] (PBS (pH 7.4), 1 mg/mL), the mean particle size is reported as 4.20±0.09 nm and the zeta potential is listed as 4.56±0.81 mV. Further, in series [1], the “physicochemical properties (particle size and zeta potential) of the labeled compound versus the unlabeled compound” value was “also the same”.

On to `[Cl][Hg][Cl]` [mercury chloride, Mercury chloride], for which the plasma creatinine level entry in series [4] (FIG. 8(A)) is recorded as “increase”. In addition, in series [4] (FIG. 8(B)), the “plasma urea nitrogen concentration” value is on record as “increase”. In series [4] (FIG. 8(C)), the “histological section of kidney tissue” value was “infiltration and necrosis of inflammatory cells and damaged cells were observed”.

As for “^111In-labeled serine-modified poly-L-lysine [^111In-labeled compound (Ia)]”, the “physicochemical properties (particle size and zeta potential) of the labeled compound versus the unlabeled compound” value in series [1] is listed as “the same as those of compound (Ia)”.

The record behind these values is patent US20220362278A1, “RENAL TARGETING-TYPE DRUG DELIVERY CARRIER HAVING EXCELLENT BIODEGRABILITY” (priority 2019, published 2022).
